From patent US5674833

target: Alcalase® (Bacillus) (UniProt P00780); assay: titration of Alcalase with inhibitor, residual activity on synthetic peptide substrates, non-linear regression; 0.1M Tris-HCl pH 8.6, 25 C

Row | Kd [nM] | Substance
1 | 5 | CI-2(M59P)
2 | 0.1 | CI-2(V57E)
3 | 0.004 | Wild-type barley subtilisin inhibitor CI-2
